# Measured values published in the RNAGym collection of RNA variant scans (doi:10.1021/acssynbio.7b00057).
# B1: Pistol ribozyme (parent)
# chain: GGGUCGUUGUUCCAUAAUCGCGUGGAUAUGGCACGCAAGUUUCUACCGGGCACCGUAAAUGUCCGACUGGAGCCGUUCGGGCGGCUAUAAACAGACCUCAGGCCCGAAGCGUGGCGGCACCUGCCGCCGGUGGUAAAAAAGAUCGGAAGAGCACACGUCU
# Variants of: B1
# Experiment: aptazyme ON/OFF ratio, guanine; higher = stronger switching; co-transcriptional cleavage with and without guanine
row,Variant,aptazyme ON/OFF ratio
1,U7G U8C U10C U11G C12G C13G,1.08
2,U7G U8C U10C U11G C12G C13A,1.13
3,U7G U8C U10C U11G C12G C13U,1.07
4,U7G U8G G9A U10A U11C C12A,1.21
5,U7G U8G G9A U10A U11C C12U,1.1
6,U7G U8G G9A U10A U11C C12G,1.23
7,U7G U8G G9A U10A U11A C12A C13G,1.07
8,U7G U8G G9A U10A U11A C12A C13U,1.38
9,U7G U8G G9A U10A U11A C12A C13A,1.11
10,U7G U8G G9A U10A U11A C13G,1.14
11,U7G U8G G9A U10A U11A C13U,1.18
12,U7G U8G G9A U10A U11A C13A,1.16
13,U7G U8C U10A C12U C13G,1.26
14,U7G U8C U10A C12U C13A,1.36
15,U7G U8C U10A C12U C13U,1.12
16,U7G U8C U10G U11G C12G C13U,1.4
17,U7G U8C U10G U11G C12G C13G,1.08
18,U7G U8C U10G U11G C12G C13A,1.18
19,U7G U8C U10C C12A,1.22
20,U7G U8C U10C C12U,3.24
21,U7G U8C U10C C12G,1.37
22,U7G U8C U10C C13A,1.07
23,U7G U8C U10C C13U,1.64
24,U7G U8C U10C C13G,1.07

row,Variant,aptazyme ON/OFF ratio
1,U7G U8G G9A U10A U11A C12G,1.16
2,U7G U8G G9A U10A U11A C12U,1.35
3,U7G U8G G9A U10A U11A C12A,1.19
4,U7G U8C U10A U11C C12G C13G,1.06
5,U7G U8C U10A U11C C12G C13A,1.11
6,U7G U8C U10A U11C C12G C13U,1.16
7,U7G U8G C12G,1.38
8,U7G U8G C12A,1.25
9,U7G U8G C12U,1.21
10,U7G U8C U11A C12G C13U,1.12
11,U7G U8C U11A C12G C13A,1.09
12,U7G U8C U11A C12G C13G,1.07
13,U7G U8C U10A U11C C13U,1.04
14,U7G U8C U10A U11C C13G,1.04
15,U7G U8C U10A U11C C13A,1.05
16,U7G U8C U10G U11G,1.31
17,U7G U8C U10G U11C,2.14
18,U7G U8C U10G U11A,1.21
19,U7G U8C U10C C12A C13U,1.24
20,U7G U8C U10C C12A C13G,1.16
21,U7G U8C U10C C12A C13A,1.19
22,U7G U8C U10A U11G C13A,1.22
23,U7G U8C U10A U11G C13G,1.23
24,U7G U8C U10A U11G C13U,1.23

row,Variant,aptazyme ON/OFF ratio
1,U7G U8G G9A U10A U11A C12U C13A,1.03
2,U7G U8G G9A U10A U11A C12U C13G,1.13
3,U7G U8G G9A U10A U11A C12U C13U,1.24
4,U7G U8G G9A C13A,1.5
5,U7G U8G G9A C13U,1.36
6,U7G U8G G9A C13G,1.17
7,U7G U8C U10G U11A C12U C13G,1.15
8,U7G U8C U10G U11A C12U C13A,1.13
9,U7G U8C U10G U11A C12U C13U,1.17
10,U7G U8C U11C C13U,1.32
11,U7G U8C U11C C13A,1.3
12,U7G U8C U11C C13G,1.07
13,U7G U8C U10G U11C C12A C13U,1.33
14,U7G U8C U10G U11C C12A C13G,1.17
15,U7G U8C U10G U11C C12A C13A,1.38
16,U7G U8C U10A U11G C12A C13U,1.19
17,U7G U8C U10A U11G C12A C13A,1.08
18,U7G U8C U10A U11G C12A C13G,1.13
19,U7G U8C U10A U11C C12A C13A,1.13
20,U7G U8C U10A U11C C12A C13U,1.27
21,U7G U8C U10A U11C C12A C13G,1.23
22,U7G U8C U11A C12A,1.37
23,U7G U8C U11A C12G,1.12
24,U7G U8C U11A C12U,1.31

row,Variant,aptazyme ON/OFF ratio
1,U7G U8C U11C C12U C13U,1.45
2,U7G U8C U11C C12U C13G,1.3
3,U7G U8C U11C C12U C13A,1.34
4,U7G U8C U10A C12A,1.21
5,U7G U8C U10A C12G,1.29
6,U7G U8C U10A C12U,1.31
7,U7G U8C U10A U11A C13A,1.18
8,U7G U8C U10A U11A C13U,1.21
9,U7G U8C U10A U11A C13G,1.18
10,U7G U8G G9A U10A U11C C12U C13A,1.08
11,U7G U8G G9A U10A U11C C12U C13U,1.15
12,U7G U8G G9A U10A U11C C12U C13G,1.17
13,U7G U8G G9A U10A C13G,1.17
14,U7G U8G G9A U10A C13U,1.37
15,U7G U8G G9A U10A C13A,1.28
16,U7G U8C U10C,2.63
17,U7G U8C U10G,1.31
18,U7G U8C U10A,1.33
19,U7G U8G G9A U10A C12U C13G,1.15
20,U7G U8G G9A U10A C12U C13U,1.35
21,U7G U8G G9A U10A C12U C13A,1.22
22,U7G U8C U10A C13G,1.08
23,U7G U8C U10A C13U,1.12
24,U7G U8C U10A C13A,1.11

row,Variant,aptazyme ON/OFF ratio
1,U7G U8C U10A U11A,2.71
2,U7G U8C U10A U11G,1.29
3,U7G U8C U10A U11C,1.04
4,U7G U8C U10G C13G,1.22
5,U7G U8C U10G C13A,1.24
6,U7G U8C U10G C13U,1.24
7,U7G U8C U10A C12G C13G,1.15
8,U7G U8C U10A C12G C13U,1.32
9,U7G U8C U10A C12G C13A,1.22
10,U7G U8C U10C U11G C12A C13G,1.22
11,U7G U8C U10C U11G C12A C13U,1.29
12,U7G U8C U10C U11G C12A C13A,1.16
13,U7G U8C U10A U11A C12A,1.05
14,U7G U8C U10A U11A C12G,1.13
15,U7G U8C U10A U11A C12U,1.43
16,U7G U8G G9A U10A,2.16
17,U7G U8C U10G C12G C13U,1.08
18,U7G U8C U10G C12G C13G,1.13
19,U7G U8C U10G C12G C13A,1.12
20,U7G U8C U10C U11G C12U C13G,1.16
21,U7G U8C U10C U11G C12U C13A,1.29
22,U7G U8C U10C U11G C12U C13U,1.31
23,U7G U8C U10C U11C C12A,1.29
24,U7G U8C U10C U11C C12G,1.27

row,Variant,aptazyme ON/OFF ratio
1,U7G U8C U10C U11C C12U,1.16
2,U7G U8C U10G C12A C13U,1.2
3,U7G U8C U10G C12A C13A,1.12
4,U7G U8C U10G C12A C13G,1.12
5,U7G U8C U10G U11G C12A C13U,1.29
6,U7G U8C U10G U11G C12A C13G,1.1
7,U7G U8C U10G U11G C12A C13A,1.09
8,U7G U8C U10C U11C,1.14
9,U7G U8C U10C U11G,1.27
10,U7G U8C U10C U11A,2.21
11,U7G U8C U10A U11C C12U,1.03
12,U7G U8C U10A U11C C12A,1.24
13,U7G U8C U10A U11C C12G,1.16
14,U7G U8G G9A U10A C12G C13U,1.22
15,U7G U8G G9A U10A C12G C13G,1.18
16,U7G U8G G9A U10A C12G C13A,1.1
17,U7G U8C U10A U11A C12A C13G,1.14
18,U7G U8C U10A U11A C12A C13U,1.15
19,U7G U8C U10A U11A C12A C13A,1.13
20,U7G U8G G9A U10A C12A C13A,1.2
21,U7G U8G G9A U10A C12A C13G,1.04
22,U7G U8G G9A U10A C12A C13U,1.06
23,U7G U8C U11C C12A C13G,1.26
24,U7G U8C U11C C12A C13U,1.46

row,Variant,aptazyme ON/OFF ratio
1,U7G U8C U11C C12A C13A,1.37
2,U7G U8C U10C C12U C13G,1.19
3,U7G U8C U10C C12U C13U,1.27
4,U7G U8C U10C C12U C13A,1.15
5,U7G U8C G9U U11G C12G C13G,1.12
6,U7G U8C G9U U11G C12G C13U,1.09
7,U7G U8C G9U U11G C12G C13A,1.08
8,U7G U8C U10C U11A C12U C13U,1.04
9,U7G U8C U10C U11A C12U C13A,1.12
10,U7G U8C U10C U11A C12U C13G,1.08
11,U7G U8C U10A U11G C12U C13A,1.22
12,U7G U8C U10A U11G C12U C13G,1.16
13,U7G U8C U10A U11G C12U C13U,1.16
14,U7G U8G C12U C13G,1.39
15,U7G U8G C12U C13U,1.5
16,U7G U8G C12U C13A,1.31
17,U7G U8C U11A C12U C13G,1.14
18,U7G U8C U11A C12U C13A,1.2
19,U7G U8C U11A C12U C13U,1.21
20,U7G U8C U10C U11C C12G C13A,1.16
21,U7G U8C U10C U11C C12G C13G,1.06
22,U7G U8C U10C U11C C12G C13U,1.14
23,U7G U8G G9A U10A U11C C13U,1.05
